{"source": "paper doi:10.1101/311175", "about": "(bioRxiv, 2018)", "key": {"[1]": {"biological_target": "the molecule itself"}, "Number&Brightness": {"biological_target": "the molecule itself", "experiment": "Number&Brightness"}}, "note": "Read-outs that look alike come from different tables or passages of the source."}
{"protein": "Influenza A virus hemagglutinin fused to mEGFP (HA-wt-mEGFP) (natural protein) not shown", "values": [{"measurement": "stoichiometry N", "setting": "[1]", "value": 3.17}]}
{"protein": "E. coli glutamine synthetase fused to mEGFP (GlnA-mEGFP) (enzyme) MSAEHVLTMLNEHEVKFVDLRFTDTKGKEQHVTIPAHQVNAEFFEEGKMFDGSSIGGWKGINESDMVLMPDASTAVIDPFFADSTLIIRCDILEPGTLQGYDRDPRSIAKRAEDYLRSTGIADTVLFGPEPEFFLFDDIRFGSSISGSHVAIDDIEGAWNSSTQYEGGNKGHRPAVKGGYFPVPPVDSAQDIRSEMCLVMEQMGLVVEAHHHEVATAGQNEVATRFNTMTKKADEIQIYKYVVHNVAHRFGKTATFMPKPMFGDNGSGMHCHMSLSKNGVNLFAGDKYAGLSEQALYYIGGVIKHAKAINALANPTTNSYKRLVPGYEAPVMLAYSARNRSASIRIPVVSSPKARRIEVRFPDPAANPYLCFAALLMAGLDGIKNKIHPGEAMDKNLYDLPPEEAKEIPQVAGSLEEALNELDLDREFLKAGGVFTDEAIDAYIALRREEDDRVRMTPHPVEFELYYSV", "values": [{"measurement": "stoichiometry N", "setting": "Number&Brightness", "value": 11.9}]}
